Reference: US20080274959A1, “Actinomadura Chromoprotein, Apoprotein and Gene Cluster” (Wyeth, priority 2004, published 2008)

Experiments:
[1] = target: bovine serum albumin (Bos taurus, UniProt P02769); test: Specificity of digestion: bovine serum albumin; assay type: biochemical; conditions: neutral/acidic protein
[2] = system: LoVo; test: Potency against human tumor cell lines: LoVo; assay type: cell-based; conditions: Colon
[3] = system: BT474; test: Potency against human tumor cell lines: BT474; assay type: cell-based; conditions: BT474, Breast
[4] = system: LOX; test: Potency against human tumor cell lines: LOX; assay type: cell-based; conditions: Melanoma
[5] = system: myelin basic protein; test: Specificity of digestion: myelin basic protein; assay type: biochemical
[6] = system: DLD1; test: Potency against human tumor cell lines: DLD1; assay type: cell-based; conditions: DLD1, Colon
[7] = system: KB-V-1; test: IC50 against P-GP expressing cells: KB-V-1; assay type: cell-based; conditions: KB-V-1, P-GP level +++; mean of two independent experiments
Text: (§1) Human PGP (MDR1) is an ATP-dependent efflux pump which is capable of transporting many drugs across cell membranes. High level expression of this protein has been linked to multiple drug resistance of tumors. […] The protein component of the chromoprotein probably protects the chromophore from drug efflux mediated by MDR1, and may be responsible for the beneficial antitumor effects in colon cell lines which often express MDR1.

[8] = Toxicity in nude mice; assay type: in vivo; conditions: for Bone Marrow Necrosis, average lesion severity: 0 = WNL, 1 = slight, 2 = mild, 3 = moderate, 4 = marked, 5 = severe
Procedure: 21G792 chromoprotein is well-tolerated in nude mice. Specifically, saline control vehicle or the chromoprotein in various doses was administered intravenously to six nude mice on days 1, 5, and 9.

[9] = system: MCF-7; test: Potency against human tumor cell lines: MCF-7; assay type: cell-based; conditions: MCF-7, Breast
[10] = system: HCT116 p21+/+ and −/− cells; test: COMET assay for DNA damage; assay type: cell-based, human; conditions: both p21-proficient and p21-deficient HCT116 cells
Text: A COMET assay obtained from Trevigen, Inc. was used to detect DNA damage. HCT116 p21+/+ and −/− cells were subjected to various amounts of the 21G792 chromoprotein and mitoxantrone.

[11] = system: HCT116; test: Potency against human tumor cell lines: HCT116; assay type: cell-based; conditions: HCT116, Colon
Procedure: (§2) The Actinomadura sp. 21G792 chromoprotein was added to an isogenic pair of cell lines (p21+/+ and p21−/−).

[12] = system: Supercoiled φX174 DNA; test: DNA cleavage assay, gel electrophoresis; assay type: biochemical
Procedure: Supercoiled φX174 DNA was incubated with various concentrations of the 21G792 chromoprotein and analyzed by gel electrophoresis. […] Nicked refers to single strand breaks in the DNA and linear refers to double strand breaks.

[13] = system: MDA-MB-361; test: Potency against human tumor cell lines: MDA-MB-361; assay type: cell-based; conditions: MDA-MB-361, Breast
[14] = system: histone H1 in HeLa cells; test: Digestion of histone H1 in HeLa cells, immunoblot; assay type: cell-based; conditions: overnight at 37° C., anti-histone H1 immunoblot
Procedure: To study whether the digestion of histones by the chromoprotein occurs in intact cells, HeLa cells were incubated with compounds overnight at 37° C. Cell lysates were analysed by SDS-PAGE and protein immunoblotting using anti-histone H1 antibodies (Santa Cruz Biotechnologies). […] This activity can contribute to antitumor effects by digesting histones in chromatin, making the DNA more accessible for cleavage. This appears to be a unique activity of the chromoprotein enediynes.

[15] = system: Histone H1; test: Digestion of histone H1, SDS-PAGE; assay type: biochemical
Procedure: Histone H1 was incubated with various concentrations of the chromoprotein in 50 mM Tris-Cl, pH 7.5 overnight at 37° C. (FIG. 20) Digestions of histone were assessed by SDS-polyacrylamide gel electrophoresis (SDS-PAGE), followed by staining of the gel with GelCode Blue (Pierce Biotechnology, Inc, Rockford, Ill.).

[16] = target: T1, Human PGP (MDR1) (Homo sapiens, UniProt P08183); test: Transport by P-GP (MDR-1); assay type: cell-based; conditions: judged from IC50 in KB, KB-8-5, KB-V-1 cells
T1 construct: endogenous in cells; parental KB is P-GP negative
T1 sequence (P08183 whole entry): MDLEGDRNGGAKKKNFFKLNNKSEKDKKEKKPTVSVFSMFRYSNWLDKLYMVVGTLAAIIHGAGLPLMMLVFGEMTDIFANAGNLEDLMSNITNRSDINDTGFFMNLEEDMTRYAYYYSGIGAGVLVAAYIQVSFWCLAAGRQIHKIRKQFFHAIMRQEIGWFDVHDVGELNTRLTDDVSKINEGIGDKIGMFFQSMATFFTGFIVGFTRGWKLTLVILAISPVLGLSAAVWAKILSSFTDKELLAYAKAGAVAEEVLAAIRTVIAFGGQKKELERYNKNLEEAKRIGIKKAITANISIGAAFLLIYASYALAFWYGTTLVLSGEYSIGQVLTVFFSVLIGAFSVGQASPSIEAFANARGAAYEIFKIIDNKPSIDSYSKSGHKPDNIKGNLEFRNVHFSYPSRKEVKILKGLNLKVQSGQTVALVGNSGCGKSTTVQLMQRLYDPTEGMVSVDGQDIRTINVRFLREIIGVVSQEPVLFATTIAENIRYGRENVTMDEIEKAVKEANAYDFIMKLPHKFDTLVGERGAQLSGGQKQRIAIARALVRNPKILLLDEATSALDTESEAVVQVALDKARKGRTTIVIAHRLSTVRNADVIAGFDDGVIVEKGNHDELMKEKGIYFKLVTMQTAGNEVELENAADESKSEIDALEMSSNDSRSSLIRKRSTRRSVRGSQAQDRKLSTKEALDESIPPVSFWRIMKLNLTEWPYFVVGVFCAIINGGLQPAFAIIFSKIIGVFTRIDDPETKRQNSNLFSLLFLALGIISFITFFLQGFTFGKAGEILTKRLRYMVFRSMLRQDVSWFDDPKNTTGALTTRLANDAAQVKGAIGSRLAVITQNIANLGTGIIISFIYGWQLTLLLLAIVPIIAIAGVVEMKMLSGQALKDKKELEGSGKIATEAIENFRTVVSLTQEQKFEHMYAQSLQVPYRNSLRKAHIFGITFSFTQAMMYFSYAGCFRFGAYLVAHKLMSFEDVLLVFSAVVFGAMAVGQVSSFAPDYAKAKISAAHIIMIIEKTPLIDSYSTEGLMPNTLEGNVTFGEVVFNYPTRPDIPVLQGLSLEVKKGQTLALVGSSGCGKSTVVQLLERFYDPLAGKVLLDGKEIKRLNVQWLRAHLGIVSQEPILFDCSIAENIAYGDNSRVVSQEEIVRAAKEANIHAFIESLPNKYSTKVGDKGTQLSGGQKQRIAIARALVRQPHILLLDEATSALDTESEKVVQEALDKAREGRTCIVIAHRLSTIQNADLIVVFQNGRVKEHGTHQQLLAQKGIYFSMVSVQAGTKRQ
Text: as §1

[17] = system: p21+/+ cells; test: Sensitivity of isogenic cell lines, p21+/+; assay type: cell-based, human; conditions: p21+/+ isogenic cell line; Mean ± SD, n = 3
Text: The p53/p21 checkpoint monitors the integrity of the genome and blocks cell cycle progression in the event of DNA damage. Disruption of the checkpoint by deletion of the p21 gene results in failure to arrest in response to DNA damage ultimately leading to cell death through apoptosis. Since loss of this checkpoint is a hallmark of cancer cells, an isogenic pair of cell lines, wherein one pair of the cell line (p21+/+) has an intact p21 gene and one member (p21−/−) has a deletion in the p21 gene, can be used to screen for potential anti-tumor compounds by identifying molecules that preferentially induce apoptosis in p21-deficient cells.
as §2

[18] = system: PC3; test: Potency against human tumor cell lines: PC3; assay type: cell-based; conditions: PC3, Prostate

Sequence of bovine serum albumin (P02769 25-607): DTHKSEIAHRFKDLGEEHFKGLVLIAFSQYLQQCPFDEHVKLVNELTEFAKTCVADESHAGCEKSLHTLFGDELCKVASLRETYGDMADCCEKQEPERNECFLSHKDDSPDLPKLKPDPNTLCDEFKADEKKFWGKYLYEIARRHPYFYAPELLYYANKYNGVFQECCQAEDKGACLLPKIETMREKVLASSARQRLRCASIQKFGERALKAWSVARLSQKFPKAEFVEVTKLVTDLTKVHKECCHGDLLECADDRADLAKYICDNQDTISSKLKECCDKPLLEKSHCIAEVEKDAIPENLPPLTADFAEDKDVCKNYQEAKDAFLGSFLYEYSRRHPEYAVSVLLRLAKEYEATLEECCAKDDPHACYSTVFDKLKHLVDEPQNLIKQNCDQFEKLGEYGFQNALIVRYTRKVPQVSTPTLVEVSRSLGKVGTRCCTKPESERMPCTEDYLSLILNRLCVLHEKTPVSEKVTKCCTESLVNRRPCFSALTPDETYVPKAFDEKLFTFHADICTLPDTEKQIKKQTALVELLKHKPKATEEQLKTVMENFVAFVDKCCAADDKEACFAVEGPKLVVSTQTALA

B1: Actinomadura sp. 21G792 chromoprotein: non-covalent complex of an apoprotein and a chromophore comprising a nine-membered enediyne, produced by Actinomadura sp. 21G792 (NRRL 30778) (protein)
chain: DTVTVNYDCVGYPSDIAVTIDAPATAGVGDTATFEVSSVVTTGAPQDLPAGEVVTDMAIVVGGAQSGTITASGLTNEATPAGQPVNMVGGEAQITFTSAGSVTFTPSTTTQVDNGAQCTVVGEAPVGATTVVS
[1]
  cleavage of bovine serum albumin: not neutral/acidic proteins such as bovine serum albumin
[2]
  IC50: 2 ng/mL
[3]
  IC50: 47 ng/mL
[4]
  IC50: 1 ng/mL
[5]
  cleavage of myelin basic protein: cleaves
[6]
  IC50: 8000 ng/mL
[7]
  IC50: 142 ng/mL
[8]; 3 mg/kg
  Lymphocytes: 290 cells/μl
  WBC: 1430 cells/μl
  Bone Marrow Necrosis, average lesion severity: 1.7
[8]; 3 mg/kg i.v. days 1, 5, 9
  Bone Marrow Necrosis, number with lesion/total number examined: 6/6
[8]; 6 mg/kg
  Lymphocytes: 40 cells/μl
  WBC: 1280 cells/μl
  Bone Marrow Necrosis, average lesion severity: 3
[8]; 6 mg/kg i.v. days 1, 5, 9
  Bone Marrow Necrosis, number with lesion/total number examined: 6/6
[8]; intravenous on days 1, 5 and 9
  tolerability: well-tolerated
[8]; mouse, in vivo
  adverse effects in the intestine, nerves, spinal cord, liver, or at the site of injection: No adverse effects
[9]
  IC50: 2 ng/mL
[10]
  concentration at which dose-dependent DNA strand breaks occur: > 100 ng/mL
[11]
  IC50: 1000 ng/mL
[12]
  need of a reducing agent (dithiothreitol, DTT) for DNA cleavage: did not require a reducing agent
[12]; various concentrations, reaction progressed over 24 hours
  DNA cleavage: induced single strand breaks and double strand breaks
[13]
  IC50: 5 ng/mL
[14]
  histone H1 in cells after incubation: reduced histone H1 in cells
[15]
  digestion of histone H1 on addition of DNA: inhibited by addition of DNA
[15]; 30 mM glutathione or N-acetyl cysteine
  digestion of histones on addition of free radical scavengers: inhibited by the addition of free radical scavengers
[15]; 50 mM Tris-Cl, pH 7.5 overnight at 37° C.
  digestion of histone H1: digestion of Histone H1
[15]; PMSF, Leupeptin, Aprotinin, Pepstatin A
  digestion of histones on addition of protease inhibitors: not by protease inhibitors
[16]
  MDR1 substrate: poor MDR1 substrate
[17]
  IC50: 90000 ± 32000 ng/mL
[18]
  IC50: 22000 ng/mL
